Kd data for 5 molecules are collected here from patent publication US20240254225A1 (INOTREM, published 2024).

In assay [1] the target is T1, recombinant cynomolgus monkey TREM-1 (cynomolgus monkey, UniProt A0A2K5VHG8 21-204).
T1 construct: Soluble recombinant protein injected as SPR analyte; construct not described; also called cTREM-1; cynomolgus TREM-1
T1 sequence: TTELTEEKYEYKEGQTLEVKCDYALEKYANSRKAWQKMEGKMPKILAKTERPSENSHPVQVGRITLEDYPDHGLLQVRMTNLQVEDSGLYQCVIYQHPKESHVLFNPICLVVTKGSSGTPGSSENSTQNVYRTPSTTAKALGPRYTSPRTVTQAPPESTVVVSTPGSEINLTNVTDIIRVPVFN
Put plainly: SPR, Fab immobilised, cynomolgus TREM-1 injected; average. Here is the method:
(§1) Surface plasmon resonance (SPR): in order to evaluate the interaction kinetics for TREM-1 antibodies or Fabs to hTREM-1 (human TREM-1) and cTREM-1 (cynomolgus monkey TREM-1), surface plasmon resonance (SPR) assays were carried out (Biacore™ T200, GE Healthcare Biosciences). The anti-human Fc antibodies (Cytiva) were immobilized on CM5 sensor chip in order to evaluate IgG1 affinities and Fabs were directly immobilized on the chip. Immobilization experiments were performed at 25° C. using HBS-EP+1× running buffer (10 mM HEPES, 150 mM NaCl, 3 mM EDTA, 0.05% surfactant P20, pH 7.4). The anti-human Fc antibodies or Fabs were diluted in 10 mM sodium acetate at acidic pH before the immobilization procedure using amine coupling on the dextran matrix of the sensor chips. […] Following these injections, ethanolamine was injected to deactivate the surface. The immobilization wizard was used to obtain several thousand of immobilized RU (resonance units). The immobilization level was chosen in order to have a proper covering of the sensor chip surface. […] Binding of hTREM-1 or cTREM-1 proteins was conducted by injecting analyte over all flow cells. […] The concentrations were evaluated using the Single Cycle Kinetics method. This approach consists of a sequential injection of increasing concentration of the analyte, with a single regeneration step using a magnesium chloride buffer (Cytiva) at the end of the cycle. Binding affinity of TREM-1 antibodies or Fabs with hTREM-1 or cTREM-1 was quantified by determination of the equilibrium dissociation constant (KD) determined by measurement of the kinetics of complex formation and dissociation.
(In general: SPR reads the build-up and loss of mass on a sensor chip optically.)

For assay [2], the target named is T1, recombinant cynomolgus monkey TREM-1. As to the kind of experiment: SPR, Fab immobilised, cynomolgus TREM-1 injected; replicate 1. Here is the method: as §1
For assay [3] the target is unchanged. As to the kind of experiment: SPR, Fab immobilised, cynomolgus TREM-1 injected; replicate 2. Here is the method:
as §1

B1: anti-hTREM-1 Fab fragment INO-10F (Fab, V domains shown)
VH: AVQLQQSVAALVRPGASVKLSCTASGFNIKNTYIHWVKQRPEQGLEWIGRIDPANGNTKYAPKFQGKATITADTSSDTAYLQLSSLTSDDTAIYYCTGHYGSTMDYWGQGTSVTVSS
VL: not shown
notes: Recombinant chimeric Fab (murine variable regions) made in CHO cells and purified on HisTrap Excel; also called INO-10 Fab
As usually defined, the Kd is the constant that tells how readily two partners part at equilibrium. Regarding B1, the Kd in assay [1] stood at 62.2 nM; in assay [2], 57.9 nM; in assay [3], 66.6 nM.

B2: humanized anti-TREM-1 Fab fragment INO-10F-4 (Fab, V domains shown)
VH: EVQLVESGGALVKPGGSLRLSCAASGFNIGNTYIHWVRQAPGKGLEWVGRIDPAGGRTKYAPKVKGRFTISADDSKNTAYLQMNSLKTEDTAVYYCTGHRGGTMDYWGQGTLVTVSS
VL: EIVLTQSPATLSLSPGERATLSCRASQSVSNYGISFLNWYQQKPGQAPRLLIYAAEYRGRGIPARFSGSGSGTDFTLTISSLEPEDFAVYYCQQSSNVPYTFGQGTKVEIK
notes: Fab
As to B2, the dissociation constant Kd in assay [1] was 24.6 nM; in assay [2], 24.8 nM; in assay [3], 24.4 nM.

B3: humanized anti-TREM-1 Fab fragment INO-10F-6 (Fab, V domains shown)
VH: EVQLVESGGALVKPGGSLRLSCAASGFNIGNTYIHWVRQAPGKGLEWVGRIDPAGGRTKYAPKVKGRFTISADDSKNTLYLQMNSLKTEDTAVYYCTGHRGGTMDYWGQGTLVTVSS
VL: EIVLTQSPATLSLSPGERATLSCRASQSVSNYGISFLNWYQQKPGQAPRLLIYAAEYRARGIPARFSGSGSGTDFTLTISSLEPEDFAVYYCQQSSNVPYTFGQGTKVEIK
notes: Fab
B3: the Kd is 56.8 nM in assay [1], 60.1 nM in assay [2] and 53.4 nM in assay [3].

B4: humanized anti-TREM-1 Fab fragment INO-10F-2 (Fab, V domains shown)
VH: EVQLVESGGALVKPGGSLRLSCAASGFNIGNTYIHWVRQAPGKGLEWIGRIDPAGGRTKYSPKVQGRFTISAPTSKNTAYLQMNSLKTEDTAVYYCTGHRGGTMDYWGQGTLVTVSS
VL: EIVLTQSPATLSLSPGERATLSCRASQSVSNYGISFLNWYQQKPGQAPRLLIYAASYQKRGIPARFSGSGSGTDFTLTISSLEPEDFAVYYCQQSSNFPWTFGQGTKVEIK
notes: Fab
For B4, the results for the Kd in assay [1] and in assay [3] were 28.3 nM and 28.5 nM, respectively.

B5: humanized anti-TREM-1 Fab fragment INO-10F-3 (Fab, V domains shown)
VH: EVQLVESGGALVKPGGSLRLSCAASGFNIDNTYIHWVRQAPGKGLEWIGRIDPAGGRTKYDPKVKGRFTISADTSKNTAYLQMNSLKTEDTAVYYCTGHYGGTMDYWGQGTLVTVSS
VL: EIVLTQSPATLSLSPGERATLSCRASESVDNYGISFLNWYQQKPGQAPRLLIYAAEYRGRGIPARFSGSGSGTDFTLTISSLEPEDFAVYYCQQSRHVPYTFGQGTKVEIK
notes: Fab
As to B5, the Kd was found to be 7.64 nM in assay [1], 7.6 nM in assay [2] and 7.68 nM in assay [3].
